The record followed here is patent publication US20060154859A1.

This assay has as its target mouse LEPRb (mouse), P48356. Briefly: cell-based or functional assay.

Sequence of mouse LEPRb (mouse), P48356 (P48356 22-1162): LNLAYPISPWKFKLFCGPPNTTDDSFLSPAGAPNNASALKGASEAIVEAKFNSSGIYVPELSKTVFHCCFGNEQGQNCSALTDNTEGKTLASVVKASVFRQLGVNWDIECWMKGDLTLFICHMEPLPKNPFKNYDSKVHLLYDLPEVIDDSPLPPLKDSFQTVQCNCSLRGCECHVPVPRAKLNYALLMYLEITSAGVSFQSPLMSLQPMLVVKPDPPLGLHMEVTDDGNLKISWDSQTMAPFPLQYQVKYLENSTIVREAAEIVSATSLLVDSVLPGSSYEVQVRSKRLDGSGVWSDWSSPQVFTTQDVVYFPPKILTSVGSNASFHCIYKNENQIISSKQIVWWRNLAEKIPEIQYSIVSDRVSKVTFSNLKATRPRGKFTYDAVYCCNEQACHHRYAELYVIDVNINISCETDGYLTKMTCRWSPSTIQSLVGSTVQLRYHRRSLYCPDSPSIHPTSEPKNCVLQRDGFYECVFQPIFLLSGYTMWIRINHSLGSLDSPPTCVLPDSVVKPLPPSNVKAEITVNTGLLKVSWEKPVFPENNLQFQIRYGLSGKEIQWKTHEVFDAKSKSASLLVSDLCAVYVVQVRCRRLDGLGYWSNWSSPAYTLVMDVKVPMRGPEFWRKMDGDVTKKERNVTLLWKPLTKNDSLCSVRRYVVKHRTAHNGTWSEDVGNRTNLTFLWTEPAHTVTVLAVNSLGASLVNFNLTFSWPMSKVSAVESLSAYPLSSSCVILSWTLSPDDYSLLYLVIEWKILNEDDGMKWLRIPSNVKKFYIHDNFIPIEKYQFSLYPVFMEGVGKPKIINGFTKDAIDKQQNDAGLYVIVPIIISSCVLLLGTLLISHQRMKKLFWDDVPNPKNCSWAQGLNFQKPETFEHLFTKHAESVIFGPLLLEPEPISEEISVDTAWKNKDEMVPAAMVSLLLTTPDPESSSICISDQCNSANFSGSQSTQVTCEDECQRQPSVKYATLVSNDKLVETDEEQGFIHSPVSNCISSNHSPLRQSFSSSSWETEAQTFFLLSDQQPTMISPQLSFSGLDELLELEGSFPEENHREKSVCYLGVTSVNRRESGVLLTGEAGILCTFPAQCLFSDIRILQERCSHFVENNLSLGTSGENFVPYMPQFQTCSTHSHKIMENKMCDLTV

B1: human leptin L39A/D40A/F41A/I42A mutant, P41159 22-167 (ligand)
chain: VPIQKVQDDTKTLIKTIVTRINDISHTQSVSSKQKVTGAAAAPGLHPILTLSKMDQTLAVYQQILTSMPSRNVIRISNDLENLRDLLHVLAFSKSCHLPWASGLETLDSLGGVLEASGYSTEVVALSRLQGSLQDMLWQLDLSPGC
B1 registered an inhibition of leptin-inducible transactivation of luciferase reporting gene in CHO cells transiently transfected with leptin receptor, stimulated with 6.25 nM human leptin of 10 nM.
